Kd data for one molecule are collected here from paper PMC10403546 (2023).

The target in this experiment is X18 gp120. The experiment in a line: SPR.

B1: bNAb F6 Fab (for SPR) (Fab, V domains shown)
VH: QVQLQQWGTGLLKPSETLSLTCAVYGVSLRGYYWTWIRQSPKKGLEWIGEIDEIGRTKYSQSLRSRATLSIDTSKKQFSLRLTSVTAADMATYYCARWRLMMVDEVTRHGMDVWSQGTMVTVSS
VL: DIVMTQSPLSLSVAPGEAASISCRSTQSLLNRNGDNYLEWYLRRPGRSPQLLIYLGSERALGVPDRFSGSGSGRDFTLKISRVEAQDVGTYYCLQTRQGAFTFGQGTKLEIK
Regarding B1, binding was characterised by a dissociation constant (Kd) of 32.5 nM.
